The text below walks through data of PMC11511902.

Like-named read-outs stand apart in the source and are kept apart here.

What all share (assay): SPR
(In general: SPR reads the build-up and loss of mass on a sensor chip optically.)

The target in data set [1] is T1, His6-gp1 (Bacillus thuringiensis phage GIL01 …, UniProt Q7WSG8 1-58).
T1 sequence: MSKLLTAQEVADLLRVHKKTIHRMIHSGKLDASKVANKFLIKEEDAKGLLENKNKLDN

The target in data set [2] is T1, His6-gp1. This is another data set of the same source.
Data set [3] addresses T1, His6-gp1. The source holds these as a separate data set.

B1: SPR_172Δ355 (cp33.1) 81-bp fragment (dsDNA)
DNA 1: GTTACTACTCGAGCGAAAAGGAAAAGTGTGACAAGATATTCCAAGGGTGCTATAATAGGAAATGAGTAAACTACTGACTGCGCAAGAGGTTGCAGA
DNA 2: TCTGCAACCTCTTGCGCAGTCAGTAGTTTACTCATTTCCTATTATAGCACCCTTGGAATATCTTGTCACACTTTTCCTTTT
DNA 3: CGCTCGAGTAGTAAC
For the molecule B1, the binding result in the data set with His6-gp1 [1] is “no binding”.

B2: SPR_252Δ262 (cp33.14) 81-bp fragment (dsDNA)
DNA 1: GTTACTACTCGAGCGTGTAATATAAAAACATTTGCATTACTGGTAATATTGGTAGCAGAGAGGGACAAACGGGACAAATCGAGACACGATACATAC
DNA 2: GTATGTATCGTGTCTCGATTTGTCCCGTTTGTCCCTCTCTGCTACCAATATTACCAGTAATGCAAATGTTTTTATATTACA
DNA 3: CGCTCGAGTAGTAAC
For B2, the binding result in the data set with His6-gp1 [2] is on record as “binds”.

B3: SPR_wt 81-bp P2 fragment (dsDNA)
DNA 1: GTTACTACTCGAGCGAACATTTGCATTACTGGTAACTTTCGGGTAATATTGGTAGCAGAGAGGGACAAACGGGACAAATCGAGACACGATACATAC
DNA 2: GTATGTATCGTGTCTCGATTTGTCCCGTTTGTCCCTCTCTGCTACCAATATTACCCGAAAGTTACCAGTAATGCAAATGTT
DNA 3: CGCTCGAGTAGTAAC
In the case of B3, in the data set with His6-gp1 [3], the binding result is given as “binds”.
